Here are results for 22 sequences from the DeepSol protein solubility set.

This data set in a line: soluble on expression in E. coli; label from the status in PepcDB or PDB records.
With “MKETVTMLNQQYVVPEGLQPYQGVTANSPWLASETEKRRRKICDSLEEAIRRSGLKNGMTISFHHAFRGGDKVVNMVMAKLAEMGFRDLTLASSSLIDAHWPLIEHIKNGVVRQIYTSGLRGKLGEEISAGLMENPVQIHSHGGRVKLIQSGELNIDVAFLGVPCCDEFGNANGFSGKSRCGSLGYAQVDAQYAKCVVLLTEEWVEFPNYPASIAQDQVDLIVQVDEVGDPEKITAGAIRLSSNPRELLIARQAANVIEHSGYFCDGFSLQTGTGGASLAVTRFLEDKMRRHNITASFGLGGITGTMVDLHEKGLIKALLDTQSFDGDAARSLAQNPHHIEISTNQYANPASKGAACERLNVVMLSALEIDVNFNVNVMTGSNGVLRGASGGHSDTAAGADLTIITAPLVRGRIPCVVEKVLTTVTPGASVDVLVTDHGIAVNPARQDLLDNLRAAGVALMTIEQLQQRAEQLTGKPQPIEFTDRVVAVVRYRDGSVIDVIRQVKG”, the “soluble on expression in E. coli” value is reported as “soluble”.

For the sequence “MKFGNFLLTYQPPELSQTEVMKRLVNLGKASEGCGFDTVWLLEHHFTEFGLLGNPYVAAAHLLGATETLNVGTAAIVLPTAHPVRQAEDVNLLDQMSKGRFRFGICRGLYDKDFRVFGTDMDNSRALMDCWYDLMKEGFNEGYIAADNEHIKFPKIQLNPSAYTQGGAPVYVVAESASTTEWAAERGLPMILSWIINTHEKKAQLDLYNEVATEHGYDVTKIDHCLSYITSVDHDSNRAKDICRNFLGHWYDSYVNATKIFDDSDQTKGYDFNKGQWRDFVLKGHKDTNRRIDYSYEINPVGTPEECIAIIQQDIDATGIDNICCGFEANGSEEEIIASMKLFQSDVMPYLKEKQ”, the “soluble on expression in E. coli” value is listed as “soluble”.

Turning to “MKFGPASPKDAIGGVTVHTLRQGPLVLKKGTTIGPAEVEALERAGIKDVVVVRMEEGDVSEDVAAASIALAVGGEGIHVERAFTGRANLFAARPGVLVIDRAAVDRINNIDEAITFATLTAYKPVVEGEMVGTVKIIPFGVEGALRDAAVKAAGRDVLKIAPYAIKRVGVVSTLLPGLSSKVIDKTLRVTAERLAPSGAGIIAERRVQHDEHALSAAIKELLALGAELVIVFGASAIADRRDVIPAAVTGIGGEIEHFGMPVDPGNLLLIARAEGVPVLGAPGCARSPVENGFDWVLMRLLAGIKVTRAELMGMGVGGLLMEIVTRPQPRARPEIEGNSQVAAIVLAAGRSTRMGGPNKLLAELDGKKLVRIATEQALASKASEVIVVTGHQTELVEQALQGLKVKFARNPDFAGGIASSVKAGIAAVPEACDGAVVCLGDMPLIDAGLIDRLIDSFAPDRGNLIVVPVSEGRRGNPVLWSRRFFRELMTLDGDVGARHLIAKHTEAVAEVPVDGEGAFLDIDTPQALEAARRGLEHHHHHH”, the “soluble on expression in E. coli” value is “not soluble”.

“MKFGWVNVIGDNWEEKKKIVTTALESSIPVVVAEPEDIEKIKELGNIKVASHSLDADIVLVNKNDNIEFLKEAKNLGKETAIYIPIESKEDEEFASEVARFGFVDNIILEGRDWTIIPLENLIADLFHRDVKIVASVNSVDEAKVAYEILEKGTDGVLLNPKNLEDIKELSKLIEEMNKEKVALDVATVTKVEPIGSGDRVCIDTCSLMKIGEGMLIGSYSRALFLVHSETVENPYVATRPFRVNAGPVHAYILCPGNKTKYLSELKAGDKVLIVDKDGNTREAIVGRVKIERRPLVLIEAEYKGDIIRTILQNAETIRLVNEKGEPISVVDLKPGDKVLIKPEEYARHFGMAIKETIIEKLEHHHHHH”: the “soluble on expression in E. coli” value is reported as “soluble”.

Regarding “MKFKYLSTPLLFSALLFSACSSVNVGANLKSLIKETTDQDLDLSESVSTSEGKKNLISSLKKSYETNPSKTASVLLNAWKQSVENGQIESSETNWTNWKFP”, the “soluble on expression in E. coli” value is listed as “soluble”.

“MKFNCPLIVVNDINISRKFYEEVLCQKIKYDFGENVVYEGDFSLQLKSHFANMIDIDEKSIKFQSNGFELYFEEDNIEAFLNKLKQNKGINYIHSLLEHPWGQRVIRFYDPDMHIIEVGESMEGVIKRFFNEGMSIDEITKRTQHPLEFVKRVLHYKLTLEHHHHHH”: the “soluble on expression in E. coli” value is given as “soluble”.

In the case of “MKFNKSTMEANGDTSACNGYSDKQRKDVRVWCDGCYDMVHFGHANSLRQAKALGDKVIVGIHTDEEITKHKGPPVFTEEERVKMVKGIKWVDEVVLGAPYVTTLDVLDQNNCDFCVHGDDITMTAEGVDTYHLVKSANRYKEVKRTAGVSTTD”, the “soluble on expression in E. coli” value is listed as “not soluble”.

Consider “MKFTEGKVKVVANDVKNLTQALEGYIQKAFFEGKDICASGGLVLKTTNKLAQKLSELKEILPQVKVISDEVKAKAEEIIKKAEETLQKGLEIKKRVKEFEAATNVYKKNPSEENKKRVETALNNLKYPEGAKLTLEDYVKNCNPYKKYLQKRVEQKA”, for which the “soluble on expression in E. coli” value was “not soluble”.

For the sequence “MKFTIMSKGDQSSDTLASTMKEYLLDFGFIMDEKEPDIVISVGGDGTLLYAFHRYYNRLDETAFVGVHTGHLGFYADWLPTEVEKLVIAIAKTPFQVVEYPLLEVIIRYVNGSKESQYLAMNEATVKSAEGTLVTEVEIRGEYFETFRGDGLCISTPSGSTAYNKALGGAIIHPSIEAIQIAEMASINNRVFRTVGSPLVLPKHHTCVLKPAAGMNLQITVDHLTMVHQDVKSIQYRVANEKVRFVRFRPFPFWKRVRDSFVADKLEHHHHHH”, the “soluble on expression in E. coli” value is “not soluble”.

Consider “MKFVNFDEYKQLVDYFRNRLNPNYSSPTMLFIISITGMRASEAFGLVWDDIDFNNNTIKCRRTWNYRNKVGGFKKPKTDAGIRDIVIDDESMQLLKDFREQQKTLFESLGIKPIHDFVCYHPYRKIITLSALQNTLDHALKKLNISTPLTVHGLRHTHASVLLYHGVDIMTVSKRLGHASVAITQQTYIHIIKLEHHHHHH”, for which the “soluble on expression in E. coli” value was “not soluble”.

As to “MKGDHYSPNWPQLALSKKQSVNWVCERCGVQCLKPGEGKGLLKEERYRFRMAVHHCDYDPSNNSPSNLMALCSLCHLYYHRRQQGNISLGQLSLEFYLEHHHHHH”, the “soluble on expression in E. coli” value is “soluble”.

With “MKGMRGPGESRDTAMAVEQDIFDAVVMADERFHGEGYQEGYEEGSSLGIVEGKRYGMVHGAKIGSEIGCYRGFALAWKCLLHSGAGEKDSRKMKVVEALIALLQDFPYDDPTYEKLHEDLDRIRGKFRQLCSLLNVQPDFKVTPGGSGLAF”, the “soluble on expression in E. coli” value is recorded as “soluble”.

In the case of “MKGPNLTEISKKITDSNAVLLAVKEVEALLSSIDEIAAKAIGKKIHQNNGLDTENNHNGSLLAGAYAISTLIKQKLDGLKNEGLKEKIDAAKKCSETFTNKLKEKHTDLGKEGVTDADAKEAILKTNGTKTKGAEELGKLFESVEVLSKAAKEMLANSVKELTSPVVAESPKKP”, the “soluble on expression in E. coli” value is given as “soluble”.

For the sequence “MKGQLAFDLPIRPALSREDFFISPANALALASLDGWRDWPRGKMVLVGPRGSGKTHLAHIWAAQAEARLIPAEALARADLPALAADGAVAVEDAERLGGDRAAEEALFHLHNLMLERAGALLITAAGPPRDWGLGLADLKSRMQAASVTRLEAPDDALLSAMLVKLFTDRQIAVPGMLVPWLVARMDRSCEAARALVAALDARSLAERRPISRQMAAELLGLTATDLEHHHHHH”, the “soluble on expression in E. coli” value was “not soluble”.

Regarding “MKGRDVVLGLLMQKELSGYDIKIVFEDVFTHFFDGSFGMIYPTLRQLENEGKIKKEVVMQEGKPNKKMYFITDEGREEFYQYMQTPVEKDVLRSDFLMRMYFGNYSDDVTIKKWIKDEIERKEAYIADLRLKYEKWRVGITFVEEISLDVGIASYSAQVETLKKKLEELEAKENNKTEE”, the “soluble on expression in E. coli” value is recorded as “soluble”.

Consider “MKHILIIGATGQIGSELTMELRRRYGNTNVVAGYIQGAEPKGELKESGPSAVVDVTNGEMIESVVKEYHIDTIYNLAALLSVVAESKPKLAWKIGIDGLWNVLEVAREQGCAVFTPSSIGSFGASTPHTQTPQDTIQRPRTMYGVTKVTTELLSDYYFNKYGVDTRAVRFPGIISNVTPPGGGTTDYAVDIYYSAVRGEKFVCPIKEGTLMDMMYMPDALNAAIMLMEADPTKLIHRNAFNIASMSFDPETIFHAIKKHVPAFEMIYDVDPLKQRIADSWPDSLDDTCAREEWGWKPAYDLESMTVDMLEKLREKLKK”, for which the “soluble on expression in E. coli” value is recorded as “not soluble”.

For the sequence “MKHQHQHQHQHQHQQPLNEEFRPEMLQGKKVIVTGASKGIGREMAYHLAKMGAHVVVTARSKETLQKVVSHCLELGAASAHYIAGTMEDMTFAEQFVAQAGKLMGGLDMLILNHITNTSLNLFHDDIHHVRKSMEVNFLSYVVLTVAALPMLKQSNGSIVVVSSLAGKVAYPMVAAYSASKFALDGFFSSIRKEYSVSRVNVSITLCVLGLIDTETAMKAVSGIVHMQAAPKEECALEIIKGGALRQEEVYYDSSLWTTLLIRNPSRKILEFLYSTSYNMDRFINK”, the “soluble on expression in E. coli” value is on record as “soluble”.

“MKIAIIGAGNMGGSIARGLAKGSLIADSDIIVSNPSAGKLEKLKEEFPGISTTLSNTEAATGADVVILAVKPWFVESVMRELKLKSKQTLVSVAAGISFEELAHFVIAPEMPMFRLIPNTAISELESMTLIAARNTNDEQNLFMLRLFNEMGMAMLIPEDKIAATTALTSCGIAYVLKYIQAAMQAGIEMGIRPKDAMEMVAQSVKGAAALILNNDTHPSVEIDKVTTPGGITIKGINELEHNGFTSAVIKAMKASK”: the “soluble on expression in E. coli” value is recorded as “soluble”.

“MKIALIGITGRVGSRLADELLRRGHHVTGIARDPASVRPQPNLTARQGDAAVPEDLAPILAGHDAVISAARFVSLDAKPLLAAIRQAGVPRLLVVGGAGSLQVAPGVALIDTPEFPDAYKPEARAGVVFLDTLRREQEVEWTFLSPSALFEPGERTGEFRLGADLLLADDEGKSWISMEDYAIALVDELETPRHARRRFTVGYLEHHHHHH”: the “soluble on expression in E. coli” value is on record as “not soluble”.

As to “MKIAVLGATGRAGSAIVAEARRRGHEVLAVVRDPQKAADRLGATVATLVKEPLVLTEADLDSVDAVVDALSVPWGSGRGYLHLDFATHLVSLLRNSDTLAVFILGSASLAMPGADHPMILDFPESAASQPWYDGALYQYYEYQFLQMNANVNWIGISPSEAFPSGPATSYVAGKDTLLVGEDGQSHITTGNMALAILDQLEHPTAIRDRIVVRDADLEHHHHHH”, the “soluble on expression in E. coli” value was “soluble”.

On to “MKIAVVGGGIVGLSTAFELSSRGHSVHVFDPNPASGASHFAGGMLAPAAEVQFQQDPLFPLMKRAGKLWPDMVRRVAQRTNLPTGYRTEGTLVVAADRADAEHLKQLRATQEAAGMDVRPITTRQARGLEPALGPRLSAAVHIPNDTQVAPRVFLTALLDALDDCGVGVIKEKITDLEPLYQQFD”, for which the “soluble on expression in E. coli” value was “not soluble”.

With “MKIEIKVQIKDGKNSPNLKPGGYIVSASKSFSIDYSKAVAITRNPEIYKNIGIPYIWISKVEGENAISPTNLPKLLHTMISLSKKHPGVTFIIDSVEYLALENGFESTFKFLISAKDHLMLNNSSLVLIIEDKAFKPNELALLKKEFKEISLEHHHHHH”, the “soluble on expression in E. coli” value is on record as “soluble”.
